Laboratory results as given in paper PMC7747717 (Nature Communications, 2020).
One block for each binder: values may come before it.

Key:
Assay in all cases: cryo-EM structure; endogenous human Pol III purified from HeLa POLR1C-GFP cells, not cross-linked, apo, 4.0 Å
Conditions in all cases: both partners purified
[1] = molecular target: T1, RPC5, subunit of purified human Pol III (human (endogenous in HeLa), UniProt Q9NVU0 1-708)
T1 construct: RPC5, subunit of the TFIIF-like RPC4/5 heterodimer of RNA polymerase III, human, endogenous; the C-terminal extension (RPC5EXT) was not visible in the EM map; also called POLR3E; source: endogenous, HeLa, purified within Pol III
T1 sequence (looked up): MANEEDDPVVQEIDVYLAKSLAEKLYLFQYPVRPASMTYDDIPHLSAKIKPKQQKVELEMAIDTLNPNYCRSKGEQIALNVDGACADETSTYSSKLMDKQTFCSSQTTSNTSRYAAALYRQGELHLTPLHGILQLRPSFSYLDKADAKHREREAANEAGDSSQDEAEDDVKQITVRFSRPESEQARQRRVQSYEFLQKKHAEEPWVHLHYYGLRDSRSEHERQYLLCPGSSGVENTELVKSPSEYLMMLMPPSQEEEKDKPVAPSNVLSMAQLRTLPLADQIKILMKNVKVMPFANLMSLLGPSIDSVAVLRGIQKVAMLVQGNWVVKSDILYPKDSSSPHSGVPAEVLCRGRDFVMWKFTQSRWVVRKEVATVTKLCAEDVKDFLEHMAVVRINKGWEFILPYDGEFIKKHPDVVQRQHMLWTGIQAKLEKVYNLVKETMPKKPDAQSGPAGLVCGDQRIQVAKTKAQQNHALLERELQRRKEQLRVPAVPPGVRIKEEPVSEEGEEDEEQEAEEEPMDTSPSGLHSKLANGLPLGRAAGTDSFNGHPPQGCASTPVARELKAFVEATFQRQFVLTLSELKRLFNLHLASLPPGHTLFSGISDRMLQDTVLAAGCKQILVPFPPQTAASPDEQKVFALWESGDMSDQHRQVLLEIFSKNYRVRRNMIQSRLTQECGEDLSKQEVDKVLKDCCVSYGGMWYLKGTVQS

[2] = molecular target: RPABC1, subunit of purified human Pol III (human (endogenous in HeLa), UniProt P19388 1-210)
[3] = molecular target: T2, RPC8, stalk subunit of purified human Pol III (human (endogenous in HeLa), UniProt Q9Y535 1-204)
T2 construct: RPC8, stalk subunit of RNA polymerase III, human, endogenous; source: endogenous, HeLa, purified within Pol III
T2 sequence (looked up): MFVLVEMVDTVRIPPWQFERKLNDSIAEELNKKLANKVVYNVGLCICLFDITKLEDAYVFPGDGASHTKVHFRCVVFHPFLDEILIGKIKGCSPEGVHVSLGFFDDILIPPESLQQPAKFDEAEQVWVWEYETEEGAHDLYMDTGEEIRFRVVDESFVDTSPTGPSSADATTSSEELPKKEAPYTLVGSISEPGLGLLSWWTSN

- binding result [1]: binds
B1: RPC4, subunit of purified human Pol III (natural protein, human (endogenous in HeLa), UniProt P05423 1-398, looked up)
chain: MSEGNAAGEPSTPGGPRPLLTGARGLIGRRPAPPLTPGRLPSIRSRDLTLGGVKKKTFTPNIISRKIKEEPKEEVTVKKEKRERDRDRQREGHGRGRGRPEVIQSHSIFEQGPAEMMKKKGNWDKTVDVSDMGPSHIINIKKEKRETDEETKQILRMLEKDDFLDDPGLRNDTRNMPVQLPLAHSGWLFKEENDEPDVKPWLAGPKEEDMEVDIPAVKVKEEPRDEEEEAKMKAPPKAARKTPGLPKDVSVAELLRELSLTKEEELLFLQLPDTLPGQPPTQDIKPIKTEVQGEDGQVVLIKQEKDREAKLAENACTLADLTEGQVGKLLIRKSGRVQLLLGKVTLDVTMGTACSFLQELVSVGLGDSRTGEMTVLGHVKHKLVCSPDFESLLDHKHR
notes: RPC4, subunit of the TFIIF-like RPC4/5 heterodimer of RNA polymerase III, human, endogenous; also called POLR3D; source: endogenous, HeLa, purified within Pol III

- binding result [2]: binds
B2: RPC1, largest subunit of purified human Pol III (natural protein)
chain: MVKEQFRETDVAKKISHICFGMKSPEEMRQQAHIQVVSKNLYSQDNQHAPLLYGVLDHRMGTSEKDRPCETCGKNLADCLGHYGYIDLELPCFHVGYFRAVIGILQMICKTCCHIMLSQEEKKQFLDYLKRPGLTYLQKRGLKKKISDKCRKKNICHHCGAFNGTVKKCGLLKIIHEKYKTNKKVVDPIVSNFLQSFETAIEHNKEVEPLLGRAQENLNPLVVLNLFKRIPAEDVPLLLMNPEAGKPSDLILTRLLVPPLCIRPSVVSDLKSGTNEDDLTMKLTEIIFLNDVIKKHRISGAKTQMIMEDWDFLQLQCALYINSELSGIPLNMAPKKWTRGFVQRLKGKQGRFRGNLSGKRVDFSGRTVISPDPNLRIDEVAVPVHVAKILTFPEKVNKANINFLRKLVQNGPEVHPGANFIQQRHTQMKRFLKYGNREKMAQELKYGDIVERHLIDGDVVLFNRQPSLHKLSIMAHLARVKPHRTFRFNECVCTPYNADFDGDEMNLHLPQTEEAKAEALVLMGTKANLVTPRNGEPLIAAIQDFLTGAYLLTLKDTFFDRAKACQIIASILVGKDEKIKVRLPPPTILKPVTLWTGKQIFSVILRPSDDNPVRANLRTKGKQYCGKGEDLCANDSYVTIQNSELMSGSMDKGTLGSGSKNNIFYILLRDWGQNEAADAMSRLARLAPVYLSNRGFSIGIGDVTPGQGLLKAKYELLNAGYKKCDEYIEALNTGKLQQQPGCTAEETLEALILKELSVIRDHAGSACLRELDKSNSPLTMALCGSKGSFINISQMIACVGQQAISGSRVPDGFENRSLPHFEKHSKLPAAKGFVANSFYSGLTPTEFFFHTMAGREGLVDTAVKTAETGYMQRRLVKSLEDLCSQYDLTVRSSTGDIIQFIYGGDGLDPAAMEGKDEPLEFKRVLDNIKAVFPCPSEPALSKNELILTTESIMKKSEFLCCQDSFLQEIKKFIKGVSEKIKKTRDKYGINDNGTTEPRVLYQLDRITPTQVEKFLETCRDKYMRAQMEPGSAVGALCAQSIGEPGTQMTLKTFHFAGVASMNITLGVPRIKEIINASKAISTPIITAQLDKDDDADYARLVKGRIEKTLLGEISEYIEEVFLPDDCFILVKLSLERIRLLRLEVNAETVRYSICTSKLRVKPGDVAVHGEAVVCVTPRENSKSSMYYVLQFLKEDLPKVVVQGIPEVSRAVIHIDEQSGKEKYKLLVEGDNLRAVMATHGVKGTRTTSNNTYEVEKTLGIEAARTTIINEIQYTMVNHGMSIDRRHVMLLSDLMTYKGEVLGITRFGLAKMKESVLMLASFEKTADHLFDAAYFGQKDSVCGVSECIIMGIPMNIGTGLFKLLHKADRDPNPPKRPLIFDTNEFHIPLVT
notes: RPC1, largest subunit of RNA polymerase III, human, endogenous; also called POLR3A; source: endogenous, HeLa, purified within Pol III

- binding result [3]: binds
B3: RPC9, stalk subunit of purified human Pol III (natural protein)
chain: not shown
notes: RPC9, stalk subunit of RNA polymerase III, human, endogenous; source: endogenous, HeLa, purified within Pol III
